Target: bacteriophage λ holin S105, allele S105τ94 (internal G2H6G2 tag) (bacteriophage λ)
Experiment: cryo-EM structure

bacteriophage λ holin S105, allele S105τ94 (internal G2H6G2 tag) (natural protein)
stoichiometry N: 72
